Target: type IV collagen
Assay: cell-based or functional assay

median NOD (numbers of disruption), saphenous vein bleeding model in hemophilia B mice 7 days after injection [disruptions] | Substance
8 | Factor IX K5A variant (from UniProt P00740 47-461) (enzyme)
19 | Factor IX K5R variant (from UniProt P00740 47-461) (enzyme)
14 | wild type Factor IX (human FIX) (from UniProt P00740 47-461) (enzyme)

Reference: patent US20150307863A1
